Molecular target: NM fibers (amyloid fibers of NM; also used sonicated as seed) (Saccharomyces cerevisiae) (UniProt P05453)
Test: seeded fiber elongation, sedimentation and acrylodan wavelength shift assays, Lineweaver-Burk plot

Chain of NM fibers (amyloid fibers of NM; also used sonicated as seed) (Saccharomyces cerevisiae) (P05453 1-253): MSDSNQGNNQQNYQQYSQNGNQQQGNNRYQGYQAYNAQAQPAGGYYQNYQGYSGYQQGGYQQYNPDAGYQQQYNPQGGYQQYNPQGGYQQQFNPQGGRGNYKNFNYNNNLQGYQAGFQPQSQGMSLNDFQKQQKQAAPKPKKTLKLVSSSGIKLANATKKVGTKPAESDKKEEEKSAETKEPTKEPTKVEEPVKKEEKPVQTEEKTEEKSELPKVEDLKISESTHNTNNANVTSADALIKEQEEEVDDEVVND

Substance: NM^T158C-acrylodan (soluble) (from UniProt P05453 1-253) (other; other documents disagree on this pair)
- Km: 0.12 µM
- kconf/Km (conformational conversion efficiency): 42000 M⁻¹ s⁻¹

Reference: patent US20060105320A1
